Assay results: publication PMC6219580, “Conversion of an amide to a high-energy thioester by Staphylococcus aureus sortase A is powered by variable binding affinity for calcium” (Scientific Reports, 2018)
Where no end group is shown, it is not given here.

Biological target: T1, Staphylococcus aureus sortase A C184A mutant (residues 60-206) (Staphylococcus aureus, UniProt Q2FV99 60-206, C184A)
T1 construct: Sortase A, Staphylococcus aureus, residues 60-206 (SrtAΔN59) with the active-site mutation C184A; Uniformly 15N-labelled for the NMR titrations; gene cloned into a PET3a vector; also called SrtA C184A; active-site mutant C184A; source: E. coli BL21 (Rosetta), purified (anion exchange, Superdex75 gel filtration)
T1 sequence (looked up): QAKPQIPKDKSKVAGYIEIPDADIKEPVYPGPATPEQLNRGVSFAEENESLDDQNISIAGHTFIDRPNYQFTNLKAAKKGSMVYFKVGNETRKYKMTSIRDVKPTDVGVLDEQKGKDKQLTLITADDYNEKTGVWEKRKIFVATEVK
Test: NMR titration; 15N-HSQC titration of the protein-Ca2+ complex at increased concentration with QALPETG-NH2; linear chemical shift changes only, far from saturation
Details: both partners purified

B1: QALPETG-NH2 (peptide)
peptide: QALPETG-NH2
notes: substrate peptide with the canonical LPXTG sorting motif; also called substrate peptide; source: synthetic peptide, bought: KE Biochem Co. Ltd (China)
In the case of B1, the Kd is reported as > 50 mM.
